Patent publication US12385055B2, “Compositions and methods for production of salidroside, icariside D2, and precursors of salidroside and icariside D2” (Whitehead Institute for Biomedical Research, priority 2017, dated 2025)

System: tyrosol
Assay: In vivo tyrosol glycosylation assay in yeast expressing Rr4HPAAS
Assay type: cell-based
Conditions: UGT on 2-micron TEF-promoter plasmid in S. cerevisiae BY4743 expressing Rr4HPAAS
Description: To facilitate functional assessment of a large number of UGT candidates, an in vivo tyrosol glycosylation assay in the yeast S. cerevisiae was devised. Initial iterations of the tyrosol-producing yeast strains were generated by transforming wild type S. cerevisiae BY4743 with separate 2-micron TEF-promoter expression plasmids containing Rr4HPAAS and Rr4HPAR1, respectively. It was later observed that yeast contains endogenous ADH activity sufficient to reduce 4-hydroxyphenylacetaladehyde produced by Rr4HPAAS to tyrosol. Therefore, the Rr4HPAR1-containing plasmid was omitted in the final tyrosol-producing strain (FIG. 18). Each of the 34 R. rosea UGT candidate genes, carried on the yeast 2-micron TEF-promoter expression plasmids, was transformed into the background strain expressing Rr4HPAAS. After auxotrophic selection, colonies were cultured, harvested and subjected to metabolic profiling by LC-HRAM-MS. […] The UGTs that contain T4GT activity appear to be phylogenetically diverse with representative enzymes falling into the D, G, E and K groups, while all of identified T8GTs cluster within the G group (FIG. 4A).
Crown tissue and root tissue of a three-month-old R. rosea plant was harvested and stored at −80° C. before subsequent metabolomic analysis. Various transgene-carrying S. cerevisiae BY4743 strains and transiently transformed N. benthamiana plants were generated to test the activity of candidate genes involved in the tyrosol glycoside biosynthesis. 3 mL of saturated S. cerevisiae culture was used to inoculate 50 mL of synthetic minimal media (SD) in a shake flask. After 24 hours of shaking at 30° C., the culture was pelleted by centrifugation, washed with water, and stored at −80° C. before further processing. N. benthamiana leaf tissue was harvested 5 days after Agrobacterium infiltration and was stored at −80° C. before further processing. Frozen yeast or plant tissue was disrupted with a TissueLyser (Qiagen) using acid-washed metal beads in 50% methanol (500 μL per 100 mg fresh weight). The extracts were then analyzed by LC-HRAM-MS. Metabolite profiling was conducted on a QExactive benchtop orbitrap mass spectrometer equipped with an Ion Max source and a HESI II probe, which was coupled to a Dionex UltiMate 3000 UPLC system (Thermo Fisher Scientific). 2 μL of each sample was injected onto a 150×2.1 mm ZIC-pHILIC column (5 μm particle size, EMD Millipore). Solvent A was 20 mM ammonium carbonate, 0.1% ammonium hydroxide; solvent B was acetonitrile. The column oven and autosampler tray were held at 25° C. and 4° C., respectively. The chromatographic gradient was run at a flow rate of 0.15 mL/min as follows: 0-20 min, linear gradient from 80% to 20% solvent B; 20-20.5 min, linear gradient from 20% to 80% solvent B; 20.5-28 min, hold at 80% solvent B. The mass spectrometer was operated in full-scan, polarity-switching mode with the spray voltage set to 3.0 kV, the heated capillary held at 275° C., and the HESI probe held at 350° C. The sheath gas flow was set to 40 units, the auxiliary gas flow was set to 15 units, and the sweep gas flow was set to 1 unit. The MS data acquisition was performed in a range of 70-1000 m/z, with the resolution set at 70,000, the AGC target at 10 e6, and the maximum injection time at 20 msec. The raw data was converted to mzML format using MSConvert (Chambers et al., 2012), and analyzed using MetaboAnalyst (Xia and Wishart, 2016) and MZmine2 (Pluskal et al., 2010).

Molecule | tyrosol glycosylation activity (T8GT / T4GT)
RrUGT29: R. rosea UGT with regio-specific T8GT activity, salidroside-producing (protein, listed as Rhodiola rosea) MGSLGKKIQQKPHAICTPYPAQGHINPMLKLAKLLHHSGFYITFVHTTYNYNRLLKTHGSDSLSGLPDFQFETIPDGLPPSDAADVTQDIPALCKSTTETCLVPFKELLAKLHNKSMASPEEVPPVTCIVSDGCMSFTVDAAEEAGVPNVLLWTTSACGFLGYANYPKLIDRGIIPLKDESYFTNGYLDKTVDGIPGMKGIRLRDFPNFVCTTNPDEFMVKYAIQEITRAARADAVILNTFDALEHDFLDGLSNIYPKVLPIGPLQLPLNQIPESSPLHSICSSLWKDEPQCITWLNSQKPKSVVYVNYGSITVMTPQQMVEFAWGLANTKYPFLWIIRPDLVAGETAVLPPDFLEVTKGRSCLASWCPQEQVLSHTSIGGFLTHCGWNSMLESVVEGVPMVCWPFFAEQQTNCWAARTKWGIGMEIDNDVKRDKVQKMVTELMEGEKGKEMKRKGGEWKKLGAEAAGPNGSATLNFSRLINDVLLSKKKIVVTT | regio-specific T8GT activity
RrUGT32: R. rosea UGT with regio-specific T8GT activity (protein, listed as Rhodiola rosea) MGSLGKKIQQKPHAICTPYPAQGHINPMLKLAKLLHHSGFYITFVHTTYNYNRLLKTHGSDSLSGLPDFQFETIPDGLPPSDAADVTQDIPALCKSTTETCLVPFKELLAKLHNKSMASPEEVPPVTCIVSDGCMSFTVDAAEEAGVPNVLLWTTSACGFLGYANYPKLIDRGIIPLKDESYFTNGYLDKTVDGIPGMKGIRLRDFPNFVCTTNPDEFMVKYAIQEITRAARADAVILNTFDALEHDFLDGLSNIYPKVLPIGPLQLPLNQIPESSPLHSICSSLWKDEPQCITWLNSQKPKSVVYVNYGSITVMTPQQMVEFAWGLANTKYPFLWIIRPDLVAGETAVLPPDFLEVTKGRSCLASWCPQEQVLSHTSIGGFLTHCGWNSMLESVVEGVPMVCWPFFAEQQTNCWAARTKWGIGMEIDNDVKRDKVQKMVTELMEGEKGKEMKRKGGEWKKLGAEAAGPNGSATLNFSRLINDVLLSKKKL | regio-specific T8GT activity
RrUGT7: R. rosea UGT with regio-specific T4GT activity (protein, listed as Rhodiola rosea) MAENTHAHAIVVPFPVQGHIKPSLNLALKLASQGFTITFVTTHFTHQQISQAHKNSTNTNHDMFFQARNSSLDIRHVTVTDTFPLGFDRAGNQDQFWEGMLHVFPAHVDELVDQLMNSSKPRPTCLILDTFYNWGSKIANKFNLVHISFWTQSALSFTLFYHWELLKKNGHFGSPDNRTDVIDYIPGVQEIKPADLISYLQMSDTTTVAHRTCFTAFEDVRKADFILANTIQEFETDTISSIRFHQPFFYPIGPVFLTKSEQQASSALWSESDCEQWLSTKPKGSVLYASFGSYARVTRHDIAEIAYGLMQSEVNFIWVIRDDIVGAHETDFLPTEFINGIKLKDQGLLVSWCSQTEVLSNAAIGGFLTHCGWNSILESVWCEVPLLCFPIMTDQPSNRKLVVDDWRIGVNLSAAEEVSREEVSMKVRNLISGELGNELRVQIQKYKKLMENGIMEGGSSHSNWNKFIHDLQIFKK | regio-specific T4GT activity
RrUGT2: R. rosea UGT with regio-specific T4GT activity, icariside D2-producing (protein, listed as Rhodiola rosea) MGSDSRPLRVFFFPFMAHGHLIPMVDIARLFSSQGVHSTIITTPLNANYISKTTSLSIKTIPFPAAEVGLPDGCENIDMLPSPDLFFKFFQAANLLQAPFENLLELERPDCLISDIFFPWSVDSAEKFNIPRLVFHGTSFFAMCAMESLKTHKPYKSVSTDSEPFLIPNLPDEIKMTKSQFTVDAWEDTEKGLGKLLADARASGLRSFGMIVNSFHELEPAYADYYKNVLNMKAWCVGPVSLYNRNDDEKIARGKKSAIDDHECLKWLEGKQPDSVVYVCFGSSASFPDEQLRDIALGLEESGVNFIWVIRRSSESGSEDYLPEGFEDRVKDRGLVIRGWAPQVLILDHPSVGGFVTHCGWNSALEGISAGLPMVTWPLFAEQFFNQKLITDVLKVGVEVGVQKWSRNGEDRVTKEKVEKAVRAVMVGEDAEERRGRARQLGKLAKKAVAKDGSSYIDLHNLLDELKLRRETLS | regio-specific T4GT activity
